For test [1], the target named is T1, Nrd1 part (residues 158-222) of the Nrd1_(158-222)-Nab3_(202-261) chimera (S. cerevisiae, UniProt P53617 158-222).
T1 construct: also called Nrd1 segment of the Nrd1–Nab3 chimera; source: E. coli BL21(DE3), purified (IMAC, TEV digestion, second IMAC, gel filtration); not shown: TxA (E. coli thioredoxin A), N-terminal, cleaved; His6, N-terminal, cleaved
T1 sequence (looked up): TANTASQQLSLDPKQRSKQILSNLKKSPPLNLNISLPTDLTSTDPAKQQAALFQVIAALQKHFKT
The test can be described thus: NMR structure; the two stretches joined on one chain (chimera Nrd1_(158-222)-Nab3_(202-261)); 10 mM sodium acetate pH 5.1, 25 mM NaCl, 1 mM DTT, 25°C, ~1 mM protein. Conditions: both partners purified.

For test [2], the target named is T2, Nrd1_(1-222) (S. cerevisiae, UniProt P53617 1-222).
T2 chain: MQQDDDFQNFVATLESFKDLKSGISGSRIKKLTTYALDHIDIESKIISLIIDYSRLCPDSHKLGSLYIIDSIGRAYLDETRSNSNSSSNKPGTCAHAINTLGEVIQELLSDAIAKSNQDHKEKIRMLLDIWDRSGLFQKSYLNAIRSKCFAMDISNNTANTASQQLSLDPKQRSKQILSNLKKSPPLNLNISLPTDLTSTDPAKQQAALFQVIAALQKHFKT
The test can be described thus: ITC.

Test [3] concerns the target T3, Nrd1_(147-222/290-489) (S. cerevisiae, UniProt P53617 147-489, lacking residues 223–289).
T3 sequence: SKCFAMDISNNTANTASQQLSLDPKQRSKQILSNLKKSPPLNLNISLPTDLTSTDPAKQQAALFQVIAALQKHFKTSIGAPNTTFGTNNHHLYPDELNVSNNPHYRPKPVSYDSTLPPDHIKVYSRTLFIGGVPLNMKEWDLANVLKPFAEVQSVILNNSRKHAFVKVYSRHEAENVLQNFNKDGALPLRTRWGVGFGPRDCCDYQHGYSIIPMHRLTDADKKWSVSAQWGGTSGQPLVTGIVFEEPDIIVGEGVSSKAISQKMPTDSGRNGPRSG
The test can be described thus: ITC. Background: ITC needs no label: the signal is the heat of the interaction.

For test [4], the target named is T2, Nrd1_(1-222). The test can be described thus: ITC.
Test [5] concerns the target T4, txA-HTEV-Nrd1_(147-222) NAID (S. cerevisiae, UniProt P53617 147-222).
T4 chain: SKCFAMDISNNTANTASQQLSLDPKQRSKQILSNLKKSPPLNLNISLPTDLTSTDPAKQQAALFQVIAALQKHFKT
The test can be described thus: ITC.

Test [6] addresses T3, Nrd1_(147-222/290-489). Put plainly: ITC. This is another data set of the same source.
For test [7], the target named is T2, Nrd1_(1-222). The test can be described thus: ITC.
Test [8] addresses T4, txA-HTEV-Nrd1_(147-222) NAID. The test can be described thus: ITC.
For test [9], the target named is T3, Nrd1_(147-222/290-489). Put plainly: ITC. The source holds these as a separate data set.
For test [10], the target named is T5, Nrd1_(1-222) (S. cerevisiae, UniProt P53617 1-222).
T5 construct: also called Nrd1 construct including the CID and NAID; source: E. coli BL21(DE3), purified (IMAC, TEV digestion, second IMAC, gel filtration); not shown: TxA (E. coli thioredoxin A), N-terminal, cleaved; His6, N-terminal, cleaved
T5 sequence (looked up): T2 chain
The test can be described thus: ITC; Nab3_(191-261) (198 μM) in the syringe titrated into Nrd1 variants in the cell (19-54 μM); 15°C; 20 mM potassium phosphate pH 7.0, 150 mM NaCl, 1 mM β-mercaptoethanol; one-site binding model; duplicates. The note with it: both partners purified.

Test [11] addresses T6, Nrd1_(147-222/290-489) (S. cerevisiae, UniProt P53617 147-489, lacking residues 223–289).
T6 construct: no linker is mentioned; source: E. coli BL21(DE3), purified (IMAC, TEV digestion, second IMAC, gel filtration); not shown: TxA (E. coli thioredoxin A), N-terminal, cleaved; His6, N-terminal, cleaved
T6 sequence (looked up): T3 sequence
The description is as above. Conditions: both partners purified.

Several values for one entry are separate records, joined by “and”; a condition that tells them apart may be missing. Equal values may be shown once. Read-outs that look alike come from different tables or passages of the source.

Results on two molecules are retold here after PMC8761494, “Structural basis of Nrd1–Nab3 heterodimerization” (Life Science Alliance, 2022).

For orientation: Kd means the equilibrium constant for the complex coming apart. Lower therefore signals tighter binding. As usually defined, the stoichiometry N is a count of units in the complex or per binding partner.

B1: Nab3 part (residues 202-261) of the Nrd1_(158-222)-Nab3_(202-261) chimera (domain or fragment, S. cerevisiae, UniProt P38996 202-261, looked up)
chain: NMENVNYDLLQKQVKYIMDSNMLNLPQFQHLPQEEKMSAILAMLNSNSDTALSVPPHDST
notes: Nab3, S. cerevisiae, residues 202-261; also called Nab3 segment of the Nrd1–Nab3 chimera; source: E. coli BL21(DE3), purified (IMAC, TEV digestion, second IMAC, gel filtration)
With B1, in test [1], the binding result is “binds”.

B2: Nrd1 interaction domain of Nab3 (Nab3 191-261) (domain or fragment, S. cerevisiae, UniProt P38996 191-261, looked up)
chain: REENDNTHFPTNMENVNYDLLQKQVKYIMDSNMLNLPQFQHLPQEEKMSAILAMLNSNSDTALSVPPHDST
notes: 15N/13C-labelled or unlabelled for NMR; natural abundance for ITC; also called NRID; Nab3 NRID; source: E. coli BL21(DE3), purified (IMAC, TEV digestion, second IMAC, gel filtration); not shown: TxA (E. coli thioredoxin A), N-terminal, cleaved; His6, N-terminal, cleaved
In the case of B2, the Kd is 130 nM with Nrd1_(1-222) [2]; 36 nM in the test with Nrd1_(147-222/290-489) [3]; 140 nM with Nrd1_(1-222) [7]; 23 nM and 25 nM in [8]; 20 nM with Nrd1_(147-222/290-489) [9]. Moreover, the Ka with Nrd1_(1-222) [4] was 7.22e+06 M⁻¹; in [5] it was 4.06e+07 M⁻¹ and 4.34e+07 M⁻¹; with Nrd1_(147-222/290-489) [6], 4.97e+07 M⁻¹. Besides, the “stoichiometry N” value in the test with Nrd1_(1-222) [10] was 0.4. Besides, in the test with Nrd1_(147-222/290-489) [11], the “fold tighter binding than with Nrd1_(1-222)” value was about 4 fold.
